Measurements from patent US6232095.

Tested on: Hmp1 (Ustilago maydis)
Assay: competition

G/A mismatch 50-mer gave a binding signal (equal to C/T competitor at 75 nM) of 1 fold.
With G/C homoduplex 50-mer the binding signal (4-fold more homoduplex needed than C/T competitor, exact homoduplex pair not stated) was 4 fold.
For cruciform DNA 61-mer, the binding signal (cruciform more effective competitor than C/T mismatch) was 7.5 fold.
